# Test results from patent US20100061992A1.
# Target: mouse TIM-3 on cells (splenic dendritic cells, D2SC1 dendritic cell line, TIM-3+ Th1 T cells) (mouse) (UniProt Q8VIM0)
# Test: cell-based or functional assay
# UniProt Q8VIM0, sequence (Q8VIM0 other isoform, or with tags, fused parts or gaps limits assumed): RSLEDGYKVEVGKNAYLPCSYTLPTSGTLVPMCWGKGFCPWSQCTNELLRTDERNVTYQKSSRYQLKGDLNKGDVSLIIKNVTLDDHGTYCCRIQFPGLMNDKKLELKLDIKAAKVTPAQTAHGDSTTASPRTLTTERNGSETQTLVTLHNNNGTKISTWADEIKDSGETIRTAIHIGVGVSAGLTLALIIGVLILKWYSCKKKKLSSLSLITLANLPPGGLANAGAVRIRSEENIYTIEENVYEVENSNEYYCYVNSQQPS
substance,measurement,value
recombinant human galectin-9 (from UniProt O00182 1-355) (ligand),"production of TNF-α in response to LPS and LPS plus galectin-9, TIM-3-/- DCs relative to wild type DCs",30 to 40%
